Data: patent US11827701B2, “IL-6 binding molecules” (argenx BV, priority 2012, dated 2023)
Positions count from the first letter of the chain named.

B1: 129D3: final germlined variant of 68F2; 129D3-WT is wild-type IgG1 129D3 (antibody, listed as Lama glama, V domains shown)
VH: EVQLQESGPGLVKPSQTLSLTCTVSGGSITSRYYAWSWIRQPPGKGLEWIGVIDYDGDTYYSPSLKSRVSISWDTSKNQFSLKLSSVTPADTAVYYCARDPDVVTGFHYDYWGQGTMVTVSS
VL: QSALTQPPSVSGTPGQSVTISCAGANNDIGTYAYVSWYQQLPGTAPKLMIYKVTTRASGIPDRFSGSKSGNTASLTISGLQAEDEADYYCASYRNFNNAVFGTGTKLTVL
modifications: IgG1 constant regions
notes: final germlined variant of 68F2; 129D3-WT is wild-type IgG1 129D3
B2: 129F2: germlined variant of 68F2, IgG1 (antibody, listed as Lama glama, V domains shown)
VH: B1 VH with S70T, P89A, A90E
VL: B1 VL with S17T, A82S, T103G
modifications: IgG1 constant regions
notes: germlined variant of 68F2, IgG1

Key:
IGROV-1 epithelial cells = assay: Epithelial ovarian cancer mouse xenograft (survival); assay type: in vivo; settings: 4 or 20 mg/kg biweekly, nude mice
Experimental: The in vivo potency of clone 129D3 was determined using a mouse xenogaft model. IGROV-1 epithelial cells (5×10^6) were injected subcutaneously into nude mice. After three days, mice were administered 129D3 or CNTO328 biweekly, at a dosage of 4 or 20 mg/kg. There were 5 mice per group and 10 mice in the control group. Percentage survival of mice in each study group was determined each week and the results plotted as a survival curve.

[1] = Thermal stability (melting temperature), functional antibody measured in Biacore; assay type: physicochemical
Experimental: To examine the thermal stability of the germlined and the parental versions of 68F2 in full length human IgG1 format, antibody samples were incubated at a concentration of 100 μg/ml (in PBS) at 4, 50, 55, 60, 65, 70 and 75° C. for 1 hour. Following this, the samples were cooled down slowly during a period of 15 minutes to 25° C. and kept at this temperature for 2 hours, after which they were stored overnight at 4° C. Following centrifugation to remove precipitates (of denatured antibody), the concentration of functional antibody remaining in solution was measured using Biacore (1/10 dilution in PBS and 1/10 in HBSEP). The slope of the association curve obtained after injection on the IL-6 immobilized chip is a measure of the concentration of functional antibody.

[2] = Pharmacokinetic study, single intravenous dose; assay type: in vivo, cynomolgus monkey
Experimental: Pharmacokinetic analysis of antibody clone 129D3 formatted as various IgG1 molecules was performed. The following antibodies were analysed: Wild-type IgG1 129D3 (129D3-WT), IgG1 129D3 with the mutations M252Y/S254T/T256E in the Fc region (129D3-YTE), and IgG1 129D3 with the mutations H433K and N434F in the Fc region (129D3-HN).
Cynomolgus monkeys (3 per antibody tested) were injected intravenously with a single 5 mg/kg dose of 129D3-WT, 129D3-YTE, or 129D3-HN. Samples were taken at different time points and tested for plasma concentration of mAb by the ELISA. Specifically, a microtiterplate (Maxisorb Nunc) was coated with 1 ug/ml IL-6 (Immunotools) in PBS overnight at 4C. The plate was washed 2 times with PBS-Tween and blocked for 2 hours with 300 μl PBS-1% casein. After 2 washes with PBS-Tween, the samples were applied. All dilutions were made in 1% pooled blank plasma (this is a pool from 3 naive cynomolgus monkeys, see chapter 4.2). The samples were allowed to bind for 2 hours at RT. Plates were then washed 5 times with PBS-Tween and goat biotinilated anti-human IgG heavy and light chain monkey adsorbed polyclonal antibodies were applied at a 1000-fold dilution (Bethyl, catno: A80-319B) and allowed to bind for 1 hour at RT. After washing the plates 5 times with PBS-Tween, streptavidin conjugated with HRP (Jackson Immunoresearch 016-030-084) was applied at a 300,000-fold dilution and allowed to bind for 1 hour at RT. Plates were then washed 5 times with PBS-Tween and a 1:1 mixture of TMB (calbiochem CL07)-s(HS)TMB weakener (SDT, #sTMB-W) was added. The staining was allowed to proceed for 10 minutes and then stopped with 0.5 M […], after which the Optical Density was measured at 450 nm. The samples were analysed four times and 129D3-WT (from the same batch that was injected into the animals) was used for a standard curve.
The pharmacokinetic profiles for the different 129D3 IgG1 antibodies are shown graphically in FIG. 12 (the results are shown are the average result of the group of monkeys).

RXF393 cells = assay: Renal cell cancer mouse xenograft model; assay type: in vivo; settings: 3 mg/kg
Experimental: The in vivo efficacy of clones 68F2 was investigated in a renal cell cancer mouse xenograft model. […] Briefly, RXF393 cells (2×10^6) were injected subcutaneously at both lateral sides of a nude mouse. Tumors were allowed to grow to a volume between of 50 en 300 mm^3, prior to antibody administration. 90% of the injected mice developed a tumor. 40 mice were split into 5 groups of 8 mice. Each group was received intraperatoneal injection of either PBS (control) or a specific dose of clone 68F2 (1, 3, 10, or 30 mg/kg). Tumor size and survival was monitored twice per week.

[3] = Production level of IgG1 after transient expression in HEK293E cells; settings: IgG1, protein A purified
Experimental: The VH and VL of the germlined versions of 68F2 were recloned in pUPE Heavy Chain and Light Chain expression vectors, respectively, for transient expression of full-length IgG1 antibodies. After transient expression in HEK293E cells, IgG1 antibodies were purified with protein A and quantified by measurement of OD280. Table 19 below summarizes the production levels of the germlined derivatives together with the levels of the 68F2 parental antibody. Potencies (in pM) were also measured in a 7TD1 based proliferation assay for each antibody.

[4] = single intravenous administration, cynomolgus monkey, non-compartmental

| Molecule | in vivo potency (survival) (IGROV-1 epithelial cells) | Tm higher than the parental 68F2 antibody ([1]; human IgG1) | Tm ([1]; human IgG1, 100 μg/ml in PBS, 1 hour) | half-life ([2]; 5 mg/kg i.v.) | MRT (Mean Residence Time) [2, 4] | T½ (elimination half-life) [2, 4] | k (mean elimination rate constant) [2, 4] | survival relative to control (RXF393 cells) | tumor outgrowth (RXF393 cells) | production level / production yield [3] |
| --- | --- | --- | --- | --- | --- | --- | --- | --- | --- | --- |
| B1 | superior to the benchmark CNTO328 IL-6 antibody | 3 °C | around 70 °C | about 15.6 days | 22.4 days | 15.6 days | 0.0468 day⁻¹ | effective at delaying death of mice relative to control | effective at inhibiting tumor outgrowth |  |
| B2 |  |  |  |  |  |  |  |  |  | 9 µg/mL |
